Experimental data published in article PMC3685266.

Experiments:
[1] = target: SecA_(Δcys), SecA without cysteine residues (E. coli) (UniProt P10408); experiment: steady-state ATPase activity titration; 80 nM SecA, 1 mM ATP, TKM buffer, increasing vesicles reconstituted with purified SecYEG, with 0.6 μM proOmpA_(Δcys), with or without 10 mM DTT
[2] = target: SecA_(D337C/K482C), intramolecularly disulfide cross-linked (clamp closed) (E. coli) (UniProt P10408); experiment: steady-state ATPase activity titration; 0.15 μM SecA, 1 mM ATP, TKM buffer pH 7.5, 0.03% C12E9, 25°C, increasing purified detergent-solubilized SecYEG, with or without 10 mM DTT; apparent affinity from a ligand-binding fit

SecYEG complex (from UniProt P0AGA2 1-443; P0AG96 1-127; P0AG99 1-110)
fold increase in affinity in the presence of proOmpA [1]: 5 fold | fold increase in apparent affinity over the SecA (Δcys) control [2]: 500 fold
